One block for each binder: values may come before it.
How the values were obtained:
[1] = target: T1, biotin-labelled EZH2 protein (UniProt Q15910 1-746, limits assumed, biotin label (EZ-link NHS-PEO4-Biotinylation kit)); experiment: KDM2B peptide array probed with biotin-EZH2 1 ug/ml, SA-HRP/ECL; Remark: noise
T1 construct: Probe in solution (1 ug/ml) on the KDM2B peptide microarray; also called NHS-PEO4-Biotinylation-labelled EZH2 protein; recombinant protein
Method: (§1) After blocking, the polypeptide microarray was incubated with biotin-labeled target protein for hybridization, visualized with the chemical chromogenic substrate and imaged using a Chempchemi digital imager. The image of colored polypeptide microarray was analyzed for the optical density of the colored points. Particularly, the optical density of each colored point was calculated using the optical density of the respective surrounding background as a reference for background correction. The highest optical density value of the colored point on membrane was set to 100%, and the optical density value of the remaining colored points was converted into percentages relative to the highest value. The points with an optical density percentage of more than 30% on the polypeptide membrane and also with an optical density percentage of less than 30% on the negative membrane were defined as positive colored points.
(§2) For the hybridization experiment, a solution of NHS-PEO4-Biotinylation-labelled EZH2 protein (1 μg/ml) was used for the hybridization of the polypeptide microarray. Streptavidin-HRP was used to amplify the reaction signal according to the experimental procedure and conditions described above, and the time of color development was 5 minutes.

[2] = target: T1, biotin-labelled EZH2 protein; experiment: KDM2B peptide array probed with biotin-EZH2 1 ug/ml, SA-HRP/ECL;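 as to Intensity (%): Background-corrected optical density of each spot on the membrane, given as percent of the brightest spot (100%), color developed for 5 minutes; 100% is the highest background-corrected spot optical density on the membrane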
[3] = target: T1, biotin-labelled EZH2 protein; experiment: KDM2B peptide array probed with biotin-EZH2 1 ug/ml, SA-HRP/ECL; Remark: spike
Method: as §1, §2

[4] = target: T1, biotin-labelled EZH2 protein; experiment: KDM2B peptide array probed with biotin-EZH2 1 ug/ml, SA-HRP/ECL; remark: listed apart in the source;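 as to Intensity (%): Background-corrected optical density of each spot on the membrane, given as percent of the brightest spot (100%), color developed for 5 minutes; 100% is the highest background-corrected spot optical density on the membrane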
Method: as §1, §2

T1 sequence (Q15910 whole entry): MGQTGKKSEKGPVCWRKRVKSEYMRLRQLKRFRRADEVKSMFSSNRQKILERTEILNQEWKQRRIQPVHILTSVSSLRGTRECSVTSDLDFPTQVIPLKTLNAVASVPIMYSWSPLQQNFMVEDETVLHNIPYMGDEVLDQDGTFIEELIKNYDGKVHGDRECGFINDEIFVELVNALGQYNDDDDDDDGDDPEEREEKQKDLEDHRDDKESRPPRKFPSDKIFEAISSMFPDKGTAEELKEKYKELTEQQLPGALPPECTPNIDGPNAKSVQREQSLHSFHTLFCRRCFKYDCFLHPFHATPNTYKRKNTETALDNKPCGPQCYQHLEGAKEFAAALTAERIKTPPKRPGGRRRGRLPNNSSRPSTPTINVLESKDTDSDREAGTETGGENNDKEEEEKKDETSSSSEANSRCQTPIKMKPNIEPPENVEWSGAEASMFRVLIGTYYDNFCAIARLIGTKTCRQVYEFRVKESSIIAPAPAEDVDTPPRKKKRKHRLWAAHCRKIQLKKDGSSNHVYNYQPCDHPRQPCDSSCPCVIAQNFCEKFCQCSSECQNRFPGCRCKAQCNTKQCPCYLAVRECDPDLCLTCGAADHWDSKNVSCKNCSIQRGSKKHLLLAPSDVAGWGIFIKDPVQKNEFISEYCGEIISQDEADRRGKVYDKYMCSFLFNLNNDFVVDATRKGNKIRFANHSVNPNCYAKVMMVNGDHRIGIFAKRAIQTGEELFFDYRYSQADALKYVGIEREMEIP

B2: peptide 155 (peptide)
peptide: EEAPRRRSDEHSKKV
Intensity (%) [1]: 0%

B5: peptide 241 (peptide)
peptide: NRPGQMDNRSKLRNI
Intensity (%) [1]: 0%

B7: peptide 223 (peptide)
peptide: KSITPLMLSGIIRRQ
Intensity (%) [1]: 0%

B8: peptide 219 (peptide)
peptide: TWNRWCCDKRLWTRI
Intensity (%) [1]: 0.56%

B11: peptide 146 (peptide)
peptide: GKTGKQKRGPGFKYA
Intensity (%) [1]: 0.01%

B13: peptide 228 (peptide)
peptide: ISKKQLSWLINRLPG
Intensity (%) [1]: 0%

B17: peptide 93 (peptide)
peptide: PKAPALRFLKRTLSN
Intensity (%) [2]: 0%

B18: peptide 149 (peptide)
peptide: SNLPGSLLKEQKMNR
Intensity (%) [3]: 0%

B19: peptide 202 (peptide)
peptide: RELRHQLGPSLRSPP
Intensity (%) [1]: 0.64%

B21: peptide 95 (peptide)
peptide: RTLSNESEESVKSTT
Intensity (%) [2]: 0%

B22: peptide 181 (peptide)
peptide: PPKTRESDHSRSSSP
Intensity (%) [1]: 0.3%

B23: peptide 14 (peptide)
peptide: RGFSLEEKLRSQLYQ
Intensity (%) [1]: 0.07%

B25: peptide 83 (peptide)
peptide: EEEACDQQPQEEEEK
Intensity (%) [2]: 0% | binding result [4]: no binding

B27: peptide 13 (peptide)
peptide: EIVSVRGFSLEEKLR
Intensity (%) [1]: 0.05%

B28: peptide 150 (peptide)
peptide: SLLKEQKMNRDNKEG
Intensity (%) [3]: 0%

B30: peptide 92 (peptide)
peptide: ALGKKPKAPALRFLK
Intensity (%) [1]: 0%

B31: peptide 8 (peptide)
peptide: EFESATQRPIDRQRY
Intensity (%) [1]: 0%

B34: peptide 50 (peptide)
peptide: GGTSVWYHVFRGGKI
Intensity (%) [1]: 0%

B35: peptide 183 (peptide)
peptide: RSSSPTAGPSTEGAE
Intensity (%) [1]: 0%

B36: peptide 154 (peptide)
peptide: RRSECEEAPRRRSDE
Intensity (%) [3]: 0%

B41: peptide 77 (peptide)
peptide: TQEYQRESMLIDAPR
Intensity (%) [1]: 0%

B42: peptide 165 (peptide)
peptide: LQTSPGSSSHLSPRP
Intensity (%) [1]: 0%

B43: peptide 70 (peptide)
peptide: DRTRVQPKFRYPFYY
Intensity (%) [1]: 0.02%

B44: peptide 127 (peptide)
peptide: KDMKKFGGPGRMKQS
Intensity (%) [1]: 0%

B45: peptide 160 (peptide)
peptide: DDVHLRKKRKYEKPQ
Intensity (%) [3]: 0%

B49: peptide 205 (peptide)
peptide: RVISRPPPSVSPPKC
Intensity (%) [1]: 0.39%

B50: peptide 90 (peptide)
peptide: PTSTPSEDQEALGKK
Intensity (%) [1]: 0.19%

B51: peptide 257 (peptide)
peptide: VTDQCLSFFKRCGNI
Intensity (%) [1]: 0.23%

B53: peptide 99 (peptide)
peptide: PKTPTGSPATEVSAK
Intensity (%) [1]: 0%

B54: peptide 184 (peptide)
peptide: TAGPSTEGAEGPEEK
Intensity (%) [1]: 0%

B55: peptide 209 (peptide)
peptide: HVIRPPPISPPPDSL
Intensity (%) [1]: 0.32%

B58: peptide 33 (peptide)
peptide: ETPEAQRDKLYNVIS
Intensity (%) [1]: 0%

B59: peptide 65 (peptide)
peptide: DSLVFGGNILHSFNV
Intensity (%) [3]: 0%

B62: peptide 135 (peptide)
peptide: EDTVEEEEGKFNLML
Intensity (%) [3]: 0%

B63: peptide 84 (peptide)
peptide: DQQPQEEEEKDEEGE
Intensity (%) [2]: 0% | binding result [4]: no binding

Next, values leading:

Intensity (%) [1]: 0%
B1: peptide 163 (peptide)
peptide: ELSGRKRASSLQTSP

Intensity (%) [1]: 0%
B3: peptide 246 (peptide)
peptide: TDASLRLIIRHMPLL

Intensity (%) [1]: 0%
B4: peptide 91 (peptide)
peptide: SEDQEALGKKPKAPA

Intensity (%) [1]: 0%
B6: peptide 210 (peptide)
peptide: PPISPPPDSLPLDDG

Intensity (%) [1]: 0%
B9: peptide 18 (peptide)
peptide: AMEGKDFNYEYVQRE

Intensity (%) [1]: 0.34%
B10: peptide 164 (peptide)
peptide: KRASSLQTSPGSSSH

Intensity (%) [1]: 0.19%
B12: peptide 73 (peptide)
peptide: EMCWYVLERYVYCVT

Intensity (%) [1]: 0%
B14: peptide 89 (peptide)
peptide: DGSTSPTSTPSEDQE

Intensity (%) [1]: 0%
B15: peptide 208 (peptide)
peptide: IQMERHVIRPPPISP

Intensity (%) [1]: 0%
B16: peptide 227 (peptide)
peptide: LSWTNISKKQLSWLI

Intensity (%) [1]: 0%
B20: peptide 262 (peptide)
peptide: VTKEGCEQFIAEMSV

Intensity (%) [1]: 0%
B24: peptide 44 (peptide)
peptide: NAIAEMKYPKVKKYC

Intensity (%) [2]: 0%
B26: peptide 97 (peptide)
peptide: VKSTTLAVDYPKTPT

Intensity (%) [1]: 0%
B29: peptide 2 (peptide)
peptide: MGGSAEDHPPRKRHA

Intensity (%) [1]: 0%
B32: peptide 266 (peptide)
peptide: VQFGQVEEKLLQKLS

Intensity (%) [3]: 0%
B33: peptide 64 (peptide)
peptide: VYTPVDSLVFGGNIL

Intensity (%) [1]: 0.72%
B37: peptide 258 (peptide)
peptide: LSFFKRCGNICHIDL

Intensity (%) [1]: 0.18%
B38: peptide 201 (peptide)
peptide: LNGTPRELRHQLGPS

Intensity (%) [1]: 0%
B39: peptide 145 (peptide)
peptide: KCNHAGKTGKQKRGP

Intensity (%) [1]: 0%
B40: peptide 96 (peptide)
peptide: ESEESVKSTTLAVDY

Intensity (%) [1]: 0%
B46: peptide 54 (peptide)
peptide: PTLHNLALYEEWVLS

Intensity (%) [1]: 0.05%
B47: peptide 263 (peptide)
peptide: CEQFIAEMSVSVQFG

Intensity (%) [2]: 0%
B48: peptide 94 (peptide)
peptide: LRFLKRTLSNESEES

Intensity (%) [1]: 0.36%
B52: peptide 182 (peptide)
peptide: ESDHSRSSSPTAGPS

Intensity (%) [1]: 0%
B56: peptide 32 (peptide)
peptide: FVRYYETPEAQRDKL

Intensity (%) [1]: 0%
B57: peptide 198 (peptide)
peptide: RPPGICERPHRFSKG

Intensity (%) [1]: 0%
B60: peptide 225 (peptide)
peptide: IIRRQPVSLDLSWTN

Intensity (%) [1]: 0%
B61: peptide 229 (peptide)
peptide: LSWLINRLPGLRDLV
